Data taken from article PMC10786891, “Massively parallel profiling of RNA-targeting CRISPR-Cas13d”.

T1: EsCas13d, nuclease-dead (Eubacterium siraeum, UniProt B0MS50, R295A;H300A;R849A;H854A)
T1 sequence: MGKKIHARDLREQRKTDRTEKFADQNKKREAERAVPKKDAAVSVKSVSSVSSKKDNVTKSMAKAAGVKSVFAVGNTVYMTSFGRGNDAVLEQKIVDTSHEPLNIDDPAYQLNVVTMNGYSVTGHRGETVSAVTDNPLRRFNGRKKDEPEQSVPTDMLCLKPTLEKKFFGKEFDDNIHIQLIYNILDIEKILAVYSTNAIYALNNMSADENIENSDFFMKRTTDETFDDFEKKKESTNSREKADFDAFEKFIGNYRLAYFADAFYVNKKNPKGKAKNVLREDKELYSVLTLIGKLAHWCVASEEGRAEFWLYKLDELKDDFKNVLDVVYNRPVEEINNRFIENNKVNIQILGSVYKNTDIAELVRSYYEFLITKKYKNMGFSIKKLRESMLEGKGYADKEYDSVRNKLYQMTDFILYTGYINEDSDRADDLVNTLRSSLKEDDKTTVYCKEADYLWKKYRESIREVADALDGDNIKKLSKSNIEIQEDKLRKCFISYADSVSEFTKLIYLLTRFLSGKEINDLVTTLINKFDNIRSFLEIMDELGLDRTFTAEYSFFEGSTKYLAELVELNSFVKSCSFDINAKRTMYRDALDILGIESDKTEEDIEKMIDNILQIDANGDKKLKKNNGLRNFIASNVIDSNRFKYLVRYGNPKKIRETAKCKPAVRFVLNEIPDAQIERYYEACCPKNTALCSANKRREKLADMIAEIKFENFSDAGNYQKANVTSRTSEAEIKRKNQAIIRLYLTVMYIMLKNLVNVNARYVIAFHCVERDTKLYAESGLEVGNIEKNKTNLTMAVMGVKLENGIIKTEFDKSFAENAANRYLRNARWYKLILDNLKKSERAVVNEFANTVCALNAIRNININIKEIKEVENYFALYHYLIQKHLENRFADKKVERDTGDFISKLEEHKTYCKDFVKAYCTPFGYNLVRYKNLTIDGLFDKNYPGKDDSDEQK


Target: T1, EsCas13d, nuclease-dead
Assay: crRNA (strand 1, pre-loaded); Mg2+; 40 mM Tris-HCl pH 7.5, 150 mM NaCl, 6 mM MgCl2, 1 mM DTT, 0.1% Tween-20, 0.2 mg/ml BSA; 25 C; 10 min per concentration, then washed
Details: tags: His6-TwinStrep-SUMO cleaved; N-terminal SNAP kept (SNAP-Surface 488); label: 3' end held by stalled T7 RNA polymerase

| Binder | Kd |
| --- | --- |
| target 1 insC 3' of 12,insA 3' of 4 (mixed) RNA 1: CACCCGUGCAAAAAUGCAGGGGUCUAAAACUGAGCGGAUAACCUCUCUAUGG RNA 2: GGGAAUGGAUCCACAUCUACGAAUUCGUACCAUAGAGAGGCUUAUCCGCAUCACCGAGAUCGGAAGAGCACACGU | 7 ± 0.7 nM |
| target 1 insC 3' of 22,insC 3' of 9 (mixed) RNA 1: CACCCGUGCAAAAAUGCAGGGGUCUAAAACUGAGCGGAUAACCUCUCUAUGG RNA 2: GGGAAUGGAUCCACAUCUACGAAUUCGUACCCAUAGAGAGGUUACUCCGCUCACCGAGAUCGGAAGAGCACACGU | 50 ± 13 nM |
| target 1 insU 3' of 22,insU 3' of 2 (mixed) RNA 1: CACCCGUGCAAAAAUGCAGGGGUCUAAAACUGAGCGGAUAACCUCUCUAUGG RNA 2: GGGAAUGGAUCCACAUCUACGAAUUCGUACUCAUAGAGAGGUUAUCCGCUCUACCGAGAUCGGAAGAGCACACGU | 35.9 ± 2.9 nM |
| target 1 insC 3' of 13,insG 3' of 8 (mixed) RNA 1: CACCCGUGCAAAAAUGCAGGGGUCUAAAACUGAGCGGAUAACCUCUCUAUGG RNA 2: GGGAAUGGAUCCACAUCUACGAAUUCGUACCAUAGAGAGCGUUAUGCCGCUCACCGAGAUCGGAAGAGCACACGU | 13.9 ± 1.5 nM |
| target 1 insA 3' of 19,insG 3' of 14 (mixed) RNA 1: CACCCGUGCAAAAAUGCAGGGGUCUAAAACUGAGCGGAUAACCUCUCUAUGG RNA 2: GGGAAUGGAUCCACAUCUACGAAUUCGUACCAUAAGAGAGGGUUAUCCGCUCACCGAGAUCGGAAGAGCACACGU | 28.6 ± 1.5 nM |
| target 1 C6A,G12C (mixed) RNA 1: CACCCGUGCAAAAAUGCAGGGGUCUAAAACUGAGCGGAUAACCUCUCUAUGG RNA 2: GGGAAUGGAUCCACAUCUACGAAUUCGUACCAUAGAGAGCUUAUCAGCUCACCGAGAUCGGAAGAGCACACGU | 14.8 ± 0.5 nM |
| target 1 insA 3' of 10 (mixed) RNA 1: CACCCGUGCAAAAAUGCAGGGGUCUAAAACUGAGCGGAUAACCUCUCUAUGG RNA 2: GGGAAUGGAUCCACAUCUACGAAUUCGUACCAUAGAGAGGUUAAUCCGCUCACCGAGAUCGGAAGAGCACACGU | 12 ± 0.5 nM |
| target 1 insA 3' of 22,insA 3' of 11 (mixed) RNA 1: CACCCGUGCAAAAAUGCAGGGGUCUAAAACUGAGCGGAUAACCUCUCUAUGG RNA 2: GGGAAUGGAUCCACAUCUACGAAUUCGUACACAUAGAGAGGUAUAUCCGCUCACCGAGAUCGGAAGAGCACACGU | 17.6 ± 1 nM |
| target 1 insU 3' of 22,insG 3' of 19 (mixed) RNA 1: CACCCGUGCAAAAAUGCAGGGGUCUAAAACUGAGCGGAUAACCUCUCUAUGG RNA 2: GGGAAUGGAUCCACAUCUACGAAUUCGUACUCAUGAGAGAGGUUAUCCGCUCACCGAGAUCGGAAGAGCACACGU | 86 ± 19 nM |
| target 1 G12C,G15U (mixed) RNA 1: CACCCGUGCAAAAAUGCAGGGGUCUAAAACUGAGCGGAUAACCUCUCUAUGG RNA 2: GGGAAUGGAUCCACAUCUACGAAUUCGUACCAUAGAUAGCUUAUCCGCUCACCGAGAUCGGAAGAGCACACGU | ~60 nM |
| target 1 insG 3' of 8,insG 3' of 3 (mixed) RNA 1: CACCCGUGCAAAAAUGCAGGGGUCUAAAACUGAGCGGAUAACCUCUCUAUGG RNA 2: GGGAAUGGAUCCACAUCUACGAAUUCGUACCAUAGAGAGGUUAUGCCGCUGCACCGAGAUCGGAAGAGCACACGU | 7.7 ± 0.4 nM |
| target 1 insA 3' of 21,insG 3' of 10 (mixed) RNA 1: CACCCGUGCAAAAAUGCAGGGGUCUAAAACUGAGCGGAUAACCUCUCUAUGG RNA 2: GGGAAUGGAUCCACAUCUACGAAUUCGUACCAAUAGAGAGGUUGAUCCGCUCACCGAGAUCGGAAGAGCACACGU | 59 ± 24 nM |
| target 1 insU 3' of 22,insC 3' of 13 (mixed) RNA 1: CACCCGUGCAAAAAUGCAGGGGUCUAAAACUGAGCGGAUAACCUCUCUAUGG RNA 2: GGGAAUGGAUCCACAUCUACGAAUUCGUACUCAUAGAGAGCGUUAUCCGCUCACCGAGAUCGGAAGAGCACACGU | 88 ± 32 nM |
| target 1 insA 3' of 12,insA 3' of 6 (mixed) RNA 1: CACCCGUGCAAAAAUGCAGGGGUCUAAAACUGAGCGGAUAACCUCUCUAUGG RNA 2: GGGAAUGGAUCCACAUCUACGAAUUCGUACCAUAGAGAGGAUUAUCCAGCUCACCGAGAUCGGAAGAGCACACGU | 37.3 ± 3 nM |
| target 1 G5C,U8G (mixed) RNA 1: CACCCGUGCAAAAAUGCAGGGGUCUAAAACUGAGCGGAUAACCUCUCUAUGG RNA 2: GGGAAUGGAUCCACAUCUACGAAUUCGUACCAUAGAGAGGUUAGCCCCUCACCGAGAUCGGAAGAGCACACGU | 35 ± 4 nM |
| target 1 U8G,U19G (mixed) RNA 1: CACCCGUGCAAAAAUGCAGGGGUCUAAAACUGAGCGGAUAACCUCUCUAUGG RNA 2: GGGAAUGGAUCCACAUCUACGAAUUCGUACCAGAGAGAGGUUAGCCGCUCACCGAGAUCGGAAGAGCACACGU | 79 ± 15 nM |
| target 1 A9G,U19A (mixed) RNA 1: CACCCGUGCAAAAAUGCAGGGGUCUAAAACUGAGCGGAUAACCUCUCUAUGG RNA 2: GGGAAUGGAUCCACAUCUACGAAUUCGUACCAAAGAGAGGUUGUCCGCUCACCGAGAUCGGAAGAGCACACGU | 44 ± 5 nM |
| target 1 insU 3' of 4,insG 3' of 4 (mixed) RNA 1: CACCCGUGCAAAAAUGCAGGGGUCUAAAACUGAGCGGAUAACCUCUCUAUGG RNA 2: GGGAAUGGAUCCACAUCUACGAAUUCGUACCAUAGAGAGGUUAUCCGCUGUCACCGAGAUCGGAAGAGCACACGU | 8.9 ± 0.8 nM |
| target 1 A9U,A20C (mixed) RNA 1: CACCCGUGCAAAAAUGCAGGGGUCUAAAACUGAGCGGAUAACCUCUCUAUGG RNA 2: GGGAAUGGAUCCACAUCUACGAAUUCGUACCCUAGAGAGGUUUUCCGCUCACCGAGAUCGGAAGAGCACACGU | ~53 nM |
| target 1 U3C,A14G (mixed) RNA 1: CACCCGUGCAAAAAUGCAGGGGUCUAAAACUGAGCGGAUAACCUCUCUAUGG RNA 2: GGGAAUGGAUCCACAUCUACGAAUUCGUACCAUAGAGGGGUUAUCCGCCCACCGAGAUCGGAAGAGCACACGU | 57 ± 18 nM |
| target 1 insG 3' of 10,insC 3' of 3 (mixed) RNA 1: CACCCGUGCAAAAAUGCAGGGGUCUAAAACUGAGCGGAUAACCUCUCUAUGG RNA 2: GGGAAUGGAUCCACAUCUACGAAUUCGUACCAUAGAGAGGUUGAUCCGCUCCACCGAGAUCGGAAGAGCACACGU | 26.7 ± 1.9 nM |
| target 1 insG 3' of 22,insU 3' of 4 (mixed) RNA 1: CACCCGUGCAAAAAUGCAGGGGUCUAAAACUGAGCGGAUAACCUCUCUAUGG RNA 2: GGGAAUGGAUCCACAUCUACGAAUUCGUACGCAUAGAGAGGUUAUCCGCUUCACCGAGAUCGGAAGAGCACACGU | 32 ± 5 nM |
| target 1 del7,del20 (mixed) RNA 1: CACCCGUGCAAAAAUGCAGGGGUCUAAAACUGAGCGGAUAACCUCUCUAUGG RNA 2: GGGAAUGGAUCCACAUCUACGAAUUCGUACCUAGAGAGGUUAUCGCUCACCGAGAUCGGAAGAGCACACGU | 39 ± 4 nM |
| target 1 insG 3' of 21,insG 3' of 2 (mixed) RNA 1: CACCCGUGCAAAAAUGCAGGGGUCUAAAACUGAGCGGAUAACCUCUCUAUGG RNA 2: GGGAAUGGAUCCACAUCUACGAAUUCGUACCGAUAGAGAGGUUAUCCGCUCGACCGAGAUCGGAAGAGCACACGU | 61 ± 13 nM |
| target 1 insU 3' of 15,insA 3' of 5 (mixed) RNA 1: CACCCGUGCAAAAAUGCAGGGGUCUAAAACUGAGCGGAUAACCUCUCUAUGG RNA 2: GGGAAUGGAUCCACAUCUACGAAUUCGUACCAUAGAGUAGGUUAUCCGACUCACCGAGAUCGGAAGAGCACACGU | 21.7 ± 2.1 nM |
| target 1 C2U,A9C (mixed) RNA 1: CACCCGUGCAAAAAUGCAGGGGUCUAAAACUGAGCGGAUAACCUCUCUAUGG RNA 2: GGGAAUGGAUCCACAUCUACGAAUUCGUACCAUAGAGAGGUUCUCCGCUUACCGAGAUCGGAAGAGCACACGU | 14.2 ± 0.5 nM |
| target 1 U3G,U11A (mixed) RNA 1: CACCCGUGCAAAAAUGCAGGGGUCUAAAACUGAGCGGAUAACCUCUCUAUGG RNA 2: GGGAAUGGAUCCACAUCUACGAAUUCGUACCAUAGAGAGGAUAUCCGCGCACCGAGAUCGGAAGAGCACACGU | 14.2 ± 1.3 nM |
| target 1 insG 3' of 22,insG 3' of 14 (mixed) RNA 1: CACCCGUGCAAAAAUGCAGGGGUCUAAAACUGAGCGGAUAACCUCUCUAUGG RNA 2: GGGAAUGGAUCCACAUCUACGAAUUCGUACGCAUAGAGAGGGUUAUCCGCUCACCGAGAUCGGAAGAGCACACGU | 28.6 ± 3.5 nM |
